Experimental data: paper PMC3295762, “Gene Expression of the Tumour Suppressor LKB1 Is Mediated by Sp1, NF-Y and FOXO Transcription Factors”

How the values were obtained:
GST-FOXO3 [1] = molecular target: T1, GST-FOXO3 (UniProt O43524 1-673); test: competition; unlabeled excess vs N1 probe; EMSA: 10% glycerol, 12 mM HEPES pH 7.9, 4 mM Tris-HCl pH 7.9, 60 mM KCl, 1 mM DTT, 0.6 mg/ml BSA, 0.5 ug poly(dI-dC), 20 ul, 30 min at 25 C; supershift 1 h at 4 C; details: protein: commercial; tags: GST; blunt
GST-FOXO3 [2] = molecular target: T1, GST-FOXO3; test: EMSA; EMSA: 10% glycerol, 12 mM HEPES pH 7.9, 4 mM Tris-HCl pH 7.9, 60 mM KCl, 1 mM DTT, 0.6 mg/ml BSA, 0.5 ug poly(dI-dC), 20 ul, 30 min at 25 C; supershift 1 h at 4 C; details: protein: commercial; tags: GST; label: 32P; blunt

T1 sequence (O43524 whole entry): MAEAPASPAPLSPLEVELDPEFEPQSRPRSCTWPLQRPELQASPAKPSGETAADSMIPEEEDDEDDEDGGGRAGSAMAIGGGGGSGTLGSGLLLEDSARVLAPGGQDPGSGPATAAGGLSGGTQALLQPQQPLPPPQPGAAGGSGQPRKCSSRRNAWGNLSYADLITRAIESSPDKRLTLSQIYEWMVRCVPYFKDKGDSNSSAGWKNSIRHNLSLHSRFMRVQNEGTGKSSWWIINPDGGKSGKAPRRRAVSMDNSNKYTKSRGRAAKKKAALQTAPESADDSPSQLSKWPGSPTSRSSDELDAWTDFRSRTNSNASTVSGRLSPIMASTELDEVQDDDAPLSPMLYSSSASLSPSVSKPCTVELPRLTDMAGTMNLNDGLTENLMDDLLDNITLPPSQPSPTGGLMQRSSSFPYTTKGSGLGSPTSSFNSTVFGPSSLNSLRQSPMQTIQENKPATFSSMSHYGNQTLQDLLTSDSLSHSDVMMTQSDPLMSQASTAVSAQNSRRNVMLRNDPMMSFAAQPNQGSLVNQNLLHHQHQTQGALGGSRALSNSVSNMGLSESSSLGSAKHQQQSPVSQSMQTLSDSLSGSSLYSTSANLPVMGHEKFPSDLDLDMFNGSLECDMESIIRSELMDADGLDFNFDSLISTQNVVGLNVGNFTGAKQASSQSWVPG

| Binder | binding result (GST-FOXO3 [1]) | binding result (GST-FOXO3 [2]) |
| --- | --- | --- |
| LKB1 FOXO site oligo mutant (dsDNA) DNA 1: GGGGAGGGAGGTAGCCAAGATGGCGGC DNA 2: GCCGCCATCTTGGCTACCTCCCTCCCC | no binding |  |
| LKB1 FOXO site oligo WT (dsDNA) DNA 1: GGGGAGGGAGGTAAACAAGATGGCGGC DNA 2: GCCGCCATCTTGTTTACCTCCCTCCCC |  | binds |
